Laboratory results published in patent US20040138118.

How the values were obtained:
[1] = system: D76A mutant myostatin pro peptide
[2] = system: myostatin pro peptide (wild type)

D76A mutant myostatin pro peptide, sequence (chain, as listed by the source D76A): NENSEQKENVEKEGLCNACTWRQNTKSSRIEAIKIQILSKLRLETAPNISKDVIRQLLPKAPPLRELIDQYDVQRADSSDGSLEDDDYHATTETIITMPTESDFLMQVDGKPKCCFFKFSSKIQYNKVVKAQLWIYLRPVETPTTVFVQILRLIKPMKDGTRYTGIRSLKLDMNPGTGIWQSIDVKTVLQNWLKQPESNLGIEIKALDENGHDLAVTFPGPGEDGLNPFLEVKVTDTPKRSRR

Question: How did the “proteolytic cleavage of the mutant pro peptide in the latent complex, western blot (FIGS. 3D and E)” value [1] turn out when mammalian Tolloid (mTLD) was run?
Answer: The value was “completely resistant to proteolysis by each of the four proteinases”.

Question: And the “partial proteolytic cleavage of the pro peptide in the latent complex, western blot (FIG. 3E)” value [2]?
Answer: Its value is “mTLD was consistently less active than the other three”.

Question: What about the “proteolytic cleavage of free pro peptide” value [2] of the same substance?
Answer: Its value is “All four of these proteinases also cleaved pro peptide that had been purified away from the C-terminal dimer”.

Question: What about the “proteolytic cleavage, SDS-PAGE and western blot with anti-pro peptide antiserum” value [2] of the same substance?
Answer: Its value is “A discrete proteolytic cleavage product of the pro peptide was detected in each reaction containing one of the four proteases”.
